# In patent EP2649983A1 (Lipotec, S.A., dated 2013):
# Target: SNARE complex in cells of a human neuroblastoma cell line (human, UniProt P60880 1-206)
# Assay: cell-based or functional assay
# Sequence of SNARE complex in cells of a human neuroblastoma cell line (P60880 whole entry, one chain of several): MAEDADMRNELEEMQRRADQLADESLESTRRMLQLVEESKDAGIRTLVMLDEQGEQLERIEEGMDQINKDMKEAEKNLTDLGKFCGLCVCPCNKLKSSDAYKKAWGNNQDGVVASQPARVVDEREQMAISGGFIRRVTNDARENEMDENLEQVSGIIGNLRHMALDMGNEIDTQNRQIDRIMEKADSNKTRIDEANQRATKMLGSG
Binder,"% RELEASED NO… (Average), dose 1 µM","% RELEASED NO… (Average), dose 10 µM","% RELEASED NO… (Average), dose 100 µM","% RELEASED NO… (Average), dose 500 µM","% RELEASED NO… (Average), dose 1000 µM"
Ac-EHLKQWM-NH2 [Ac-SEQ ID NO:1-NH2],96.1%,93.1%,79.6%,49.1%,42.5%
Ac-DHFLDWM-NH2 [Ac-SEQ ID NO:25-NH2],99.6%,94.5%,74.8%,48.1%,41%
Ac-DHFQQRM-NH2 [Ac-SEQ ID NO:24-NH2],90.6%,97.1%,89%,78.1%,67.9%
Ac-EDLKRWM-NH2 [Ac-SEQ ID NO:14-NH2],–,85%,86%,–,45.8%
